Source: IntAct's records for PubMed 20133701

Biological target: T1, rara_human RARA (UniProt P10276)
T1 sequence: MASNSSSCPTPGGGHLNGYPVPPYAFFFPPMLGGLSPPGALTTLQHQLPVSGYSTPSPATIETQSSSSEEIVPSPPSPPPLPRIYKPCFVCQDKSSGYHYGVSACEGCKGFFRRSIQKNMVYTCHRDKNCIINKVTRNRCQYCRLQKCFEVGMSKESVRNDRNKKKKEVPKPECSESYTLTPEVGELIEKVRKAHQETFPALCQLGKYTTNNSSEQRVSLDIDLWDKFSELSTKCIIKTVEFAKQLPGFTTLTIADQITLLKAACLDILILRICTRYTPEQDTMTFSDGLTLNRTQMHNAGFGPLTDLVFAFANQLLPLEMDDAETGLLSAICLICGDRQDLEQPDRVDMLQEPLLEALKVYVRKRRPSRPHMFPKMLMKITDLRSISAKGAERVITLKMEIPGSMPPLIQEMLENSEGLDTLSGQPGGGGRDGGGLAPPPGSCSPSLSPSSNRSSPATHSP

effect of a mutation on the interaction: disrupting interaction strength
Substance: LIM domain-containing protein ajuba (Mus musculus) (from UniProt Q91XC0) L292A;L293A;L295A;L418A;I419A;L420A;I488A;V489A;V491A
